Measurements: US20110212528A1

Target: GAL4/CfEcR-DEF (Choristoneura fumiferana)
Experiment: cell-based or functional assay

## VP16/HsRXRβ-EF substitution mutant A495S (receptor)
  fold induction (maximum, reporter gene transactivation, NIH3T3 cells, GS-E): 30 fold

## VP16/HsRXRβ-EF substitution mutant A528S (receptor)
  fold induction (maximum, reporter gene transactivation, NIH3T3 cells, GS-E): 21 fold
